Source: patent publication US20220265819A1

Molecular target: full length pHrodo-labelled monomeric (P301S) 2N4R tau (human) (UniProt P10636)
Experiment: cell-based or functional assay

Sequence of full length pHrodo-labelled monomeric (P301S) 2N4R tau (human) (P10636 other isoform, or with tags, fused parts or gaps P301S P301S): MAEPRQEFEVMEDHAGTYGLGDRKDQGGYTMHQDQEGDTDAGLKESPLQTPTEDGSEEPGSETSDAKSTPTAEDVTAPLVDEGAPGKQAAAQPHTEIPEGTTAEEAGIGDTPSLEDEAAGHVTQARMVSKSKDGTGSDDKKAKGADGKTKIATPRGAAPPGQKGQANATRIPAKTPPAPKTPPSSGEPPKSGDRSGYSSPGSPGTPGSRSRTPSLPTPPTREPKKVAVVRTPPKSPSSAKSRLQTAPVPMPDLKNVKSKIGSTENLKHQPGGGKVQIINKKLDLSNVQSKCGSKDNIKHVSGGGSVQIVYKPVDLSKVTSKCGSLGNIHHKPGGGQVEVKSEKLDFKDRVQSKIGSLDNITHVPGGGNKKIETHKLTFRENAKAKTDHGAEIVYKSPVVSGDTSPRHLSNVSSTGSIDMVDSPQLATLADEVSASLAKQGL

## human IgG1 isotype control (antibody)
  inhibition of uptake of monomeric tau into human iPSC-derived neurons: 16.9 % inhibition

## isotype control rabbit IgG (Abcam) (antibody)
  inhibition of uptake of monomeric tau into human iPSC-derived neurons: 14.5 % inhibition
